Measurements: patent US20170304355A1, “COMPOSITIONS AND METHODS OF USE THEREOF” (priority 2014, published 2017)

Test system: IL-8
Test: LPS stimulated IL-8 ELISA in U937 macrophages, PAAG and lactoferrin
Assay type: cell-based, human
Settings: 100 ng/ml lactoferrin pretreatment 1 hour, LPS stimulation; at 24 hours; FIG. 31

B1: lactoferrin: Lactoferrin, comparator pretreatment at 100 ng/ml (protein, UniProt P02788 20-710, looked up)
Lactotransferrin: GRRRSVQWCAVSQPEATKCFQWQRNMRKVRGPPVSCIKRDSPIQCIQAIAENRADAVTLDGGFIYEAGLAPYKLRPVAAEVYGTERQPRTHYYAVAVVKKGGSFQLNELQGLKSCHTGLRRTAGWNVPIGTLRPFLNWTGPPEPIEAAVARFFSASCVPGADKGQFPNLCRLCAGTGENKCAFSSQEPYFSYSGAFKCLRDGAGDVAFIRESTVFEDLSDEAERDEYELLCPDNTRKPVDKFKDCHLARVPSHAVVARSVNGKEDAIWNLLRQAQEKFGKDKSPKFQLFGSPSGQKDLLFKDSAIGFSRVPPRIDSGLYLGSGYFTAIQNLRKSEEEVAARRARVVWCAVGEQELRKCNQWSGLSEGSVTCSSASTTEDCIALVLKGEADAMSLDGGYVYTAGKCGLVPVLAENYKSQQSSDPDPNCVDRPVEGYLAVAVVRRSDTSLTWNSVKGKKSCHTAVDRTAGWNIPMGLLFNQTGSCKFDEYFSQSCAPGSDPRSNLCALCIGDEQGENKCVPNSNERYYGYTGAFRCLAENAGDVAFVKDVTVLQNTDGNNNEAWAKDLKLADFALLCLDGKRKPVTEARSCHLAMAPNHAVVSRMDKVERLKQVLLHQQAKFGRNGSDCPDKFCLFQSETKNLLFNDNTECLARLHGKTTYEKYLGPQYVAGITNLKKCSTSPLLEACEFLRK
B1 was tested, and the IL-8 secretion suppression was “IL-8 secretion suppression”.
